# Laboratory results published in article PMC11555717 (Cancer Medicine, 2024).
# Test: EV-203 safety/tolerability: adverse events
# Format: in vivo, human
# Conditions: for Treatment-related adverse event: Any: 1.25 mg/kg; for Treatment-related adverse event: Any / Treatment-emergent adverse event: Alopecia / Treatment-emergent adverse event: Anemia / Treatment-emergent adverse event: Any / Treatment-emergent adverse event: Aspartate aminotransferase increased / Treatment-emergent adverse event: Constipation / Treatment-emergent adverse event: Decreased appetite / Treatment-emergent adverse event: Diarrhea / Treatment-emergent adverse event: Hyperglycemia / Treatment-emergent adverse event: Hypokalemia / Treatment-emergent adverse event: Hyponatremia / Treatment-emergent adverse event: Hypophosphatemia / Treatment-emergent adverse event: Nausea / Treatment-emergent adverse event: Neutrophil count decreased / Treatment-emergent adverse event: Pneumonia / Treatment-emergent adverse event: Pruritus / Treatment-emergent adverse event: Pyrexia / Treatment-emergent adverse event: Rash / Treatment-emergent adverse event: Rash maculo-papular / Treatment-emergent adverse event: Vomiting / Treatment-emergent adverse event: White blood cell count decreased / Treatment-related adverse event of special interest: Corneal disorder/blurred vision / Treatment-related adverse event of special interest: Dry eye / Treatment-related adverse event of special interest: Hyperglycemia (composite) / Treatment-related adverse event of special interest: Infusion-related reaction / Treatment-related adverse event of special interest: Peripheral neuropathy (composite) / Treatment-related adverse event of special interest: Skin reaction (composite) / Treatment-related adverse event: Alopecia / Treatment-related adverse event: Anemia / Treatment-related adverse event: Aspartate aminotransferase increased / Treatment-related adverse event: Constipation / Treatment-related adverse event: Decreased appetite / Treatment-related adverse event: Diarrhea / Treatment-related adverse event: Hyperglycemia (preferred term) / Treatment-related adverse event: Hypokalemia / Treatment-related adverse event: Hyponatremia / Treatment-related adverse event: Hypophosphatemia / Treatment-related adverse event: Nausea / Treatment-related adverse event: Neutrophil count decreased / Treatment-related adverse event: Pruritus / Treatment-related adverse event: Rash / Treatment-related adverse event: Rash maculopapular / Treatment-related adverse event: White blood cell count decreased: N = 40
# Excerpt: Safety assessments included physical and ophthalmologic examinations, clinical laboratory tests, 12‐lead electrocardiography, and ECOG PS.
# PFS was defined as the time from the start of the study treatment to the first documentation of objective tumor progression (i.e., progressive disease per RECIST version 1.1) by IRC or investigator assessment (whichever was specified) or to death due to any cause, whichever came first. OS was defined as the time from the start of study treatment to the date of death due to any cause. […] AEs of special interest were medical concepts of composite terms based on search criteria (standard Medical Dictionary for Regulatory Activities query or sponsor‐specific query/customized Medical Dictionary for Regulatory Activities query). For example, skin reactions included categories of rash and severe cutaneous adverse reactions (which included specific events such as drug eruption, eczema, dermatitis, mouth ulceration, stomatitis, etc.). Data for treatment‐related AEs (TRAEs) were evaluated by the investigator.
# All patients who received any amount of study drug were included in the primary analyses of efficacy endpoints and safety analyses.
substance,measurement,setting,value
"enfortumab vedotin: fully human monoclonal ADC directed to Nectin-4, delivering intracellular monomethyl auristatin E (MMAE) to tumor cells","Treatment-related skin reactions grade 3, patients",13 patients,32.5%
same,"Treatment-related peripheral neuropathy, patients","15 patients, all events grade 1 or 2",37.5%
same,"Serious TRAEs, patients",16 of 40 patients,40.0%
same,"Dose interruption due to TRAEs, patients",22 of 40 patients,55.0%
same,"Dose reduction due to TRAEs, patients",25 of 40 patients,62.5%
same,"Grade 3 or higher TRAEs, patients",29 of 40 patients,72.5%
same,Treatment-related adverse event: Any,any grade,40 (100) n (%)
same,"Treatment-related hyperglycemia, patients","any grade, 22 patients",55.0%
same,"Treatment-related skin reactions, patients","any grade, 31 patients",77.5%
same,Treatment-emergent adverse event: Alopecia,any grade,12 (30.0) n (%)
same,Treatment-emergent adverse event: Anemia,any grade,28 (70.0) n (%)
same,Treatment-emergent adverse event: Any,any grade,40 (100) n (%)
same,Treatment-emergent adverse event: Aspartate aminotransferase increased,any grade,26 (65.0) n (%)
same,Treatment-emergent adverse event: Constipation,any grade,19 (47.5) n (%)
same,Treatment-emergent adverse event: Decreased appetite,any grade,26 (65.0) n (%)
same,Treatment-emergent adverse event: Diarrhea,any grade,19 (47.5) n (%)
same,Treatment-emergent adverse event: Hyperglycemia,any grade,20 (50.0) n (%)
same,Treatment-emergent adverse event: Hypokalemia,any grade,15 (37.5) n (%)
same,Treatment-emergent adverse event: Hyponatremia,any grade,13 (32.5) n (%)
same,Treatment-emergent adverse event: Hypophosphatemia,any grade,7 (17.5) n (%)
same,Treatment-emergent adverse event: Nausea,any grade,20 (50.0) n (%)
same,Treatment-emergent adverse event: Neutrophil count decreased,any grade,19 (47.5) n (%)
same,Treatment-emergent adverse event: Pneumonia,any grade,5 (12.5) n (%)
same,Treatment-emergent adverse event: Pruritus,any grade,14 (35.0) n (%)
same,Treatment-emergent adverse event: Pyrexia,any grade,15 (37.5) n (%)
same,Treatment-emergent adverse event: Rash,any grade,17 (42.5) n (%)
same,Treatment-emergent adverse event: Rash maculo-papular,any grade,6 (15.0) n (%)
same,Treatment-emergent adverse event: Vomiting,any grade,12 (30.0) n (%)
same,Treatment-emergent adverse event: White blood cell count decreased,any grade,16 (40.0) n (%)
same,Treatment-related adverse event of special interest: Corneal disorder/blurred vision,any grade,2 (5.0) n (%)
same,Treatment-related adverse event of special interest: Dry eye,any grade,3 (7.5) n (%)
same,Treatment-related adverse event of special interest: Hyperglycemia (composite),any grade,22 (55.0) n (%)
same,Treatment-related adverse event of special interest: Infusion-related reaction,any grade,2 (5.0) n (%)
same,Treatment-related adverse event of special interest: Peripheral neuropathy (composite),any grade,15 (37.5) n (%)
same,Treatment-related adverse event of special interest: Skin reaction (composite),any grade,31 (77.5) n (%)
same,Treatment-related adverse event: Alopecia,any grade,12 (30.0) n (%)
same,Treatment-related adverse event: Anemia,any grade,27 (67.5) n (%)
same,Treatment-related adverse event: Aspartate aminotransferase increased,any grade,25 (62.5) n (%)
same,Treatment-related adverse event: Constipation,any grade,16 (40.0) n (%)
same,Treatment-related adverse event: Decreased appetite,any grade,25 (62.5) n (%)
same,Treatment-related adverse event: Diarrhea,any grade,19 (47.5) n (%)
same,Treatment-related adverse event: Hyperglycemia (preferred term),any grade,19 (47.5) n (%)
same,Treatment-related adverse event: Hypokalemia,any grade,14 (35.0) n (%)
same,Treatment-related adverse event: Hyponatremia,any grade,12 (30.0) n (%)
same,Treatment-related adverse event: Hypophosphatemia,any grade,7 (17.5) n (%)
same,Treatment-related adverse event: Nausea,any grade,20 (50.0) n (%)
same,Treatment-related adverse event: Neutrophil count decreased,any grade,19 (47.5) n (%)
same,Treatment-related adverse event: Pruritus,any grade,14 (35.0) n (%)
same,Treatment-related adverse event: Rash,any grade,17 (42.5) n (%)
same,Treatment-related adverse event: Rash maculopapular,any grade,6 (15.0) n (%)
same,Treatment-related adverse event: White blood cell count decreased,any grade,16 (40.0) n (%)
same,"Treatment-related hyperglycemia grade 3, patients",four patients,10.0%
same,Treatment-related adverse event: Any,grade ≥ 3,29 (72.5) n (%)
same,Treatment-emergent adverse event: Alopecia,grade ≥ 3,0 n (%)
same,Treatment-emergent adverse event: Anemia,grade ≥ 3,6 (15.0) n (%)
same,Treatment-emergent adverse event: Any,grade ≥ 3,30 (75.0) n (%)
same,Treatment-emergent adverse event: Aspartate aminotransferase increased,grade ≥ 3,1 (2.5) n (%)
same,Treatment-emergent adverse event: Constipation,grade ≥ 3,0 n (%)
same,Treatment-emergent adverse event: Decreased appetite,grade ≥ 3,1 (2.5) n (%)
same,Treatment-emergent adverse event: Diarrhea,grade ≥ 3,2 (5.0) n (%)
same,Treatment-emergent adverse event: Hyperglycemia,grade ≥ 3,3 (7.5) n (%)
same,Treatment-emergent adverse event: Hypokalemia,grade ≥ 3,2 (5.0) n (%)
same,Treatment-emergent adverse event: Hyponatremia,grade ≥ 3,5 (12.5) n (%)
same,Treatment-emergent adverse event: Hypophosphatemia,grade ≥ 3,5 (12.5) n (%)
same,Treatment-emergent adverse event: Nausea,grade ≥ 3,0 n (%)
same,Treatment-emergent adverse event: Neutrophil count decreased,grade ≥ 3,8 (20.0) n (%)
same,Treatment-emergent adverse event: Pneumonia,grade ≥ 3,5 (12.5) n (%)
same,Treatment-emergent adverse event: Pruritus,grade ≥ 3,2 (5.0) n (%)
same,Treatment-emergent adverse event: Pyrexia,grade ≥ 3,0 n (%)
same,Treatment-emergent adverse event: Rash,grade ≥ 3,5 (12.5) n (%)
same,Treatment-emergent adverse event: Rash maculo-papular,grade ≥ 3,4 (10.0) n (%)
same,Treatment-emergent adverse event: Vomiting,grade ≥ 3,0 n (%)
same,Treatment-emergent adverse event: White blood cell count decreased,grade ≥ 3,5 (12.5) n (%)
same,Treatment-related adverse event of special interest: Corneal disorder/blurred vision,grade ≥ 3,0 n (%)
same,Treatment-related adverse event of special interest: Dry eye,grade ≥ 3,0 n (%)
same,Treatment-related adverse event of special interest: Hyperglycemia (composite),grade ≥ 3,5 (12.5) n (%)
same,Treatment-related adverse event of special interest: Infusion-related reaction,grade ≥ 3,0 n (%)
same,Treatment-related adverse event of special interest: Peripheral neuropathy (composite),grade ≥ 3,0 n (%)
same,Treatment-related adverse event of special interest: Skin reaction (composite),grade ≥ 3,13 (32.5) n (%)
same,Treatment-related adverse event: Alopecia,grade ≥ 3,0 n (%)
same,Treatment-related adverse event: Anemia,grade ≥ 3,6 (15.0) n (%)
same,Treatment-related adverse event: Aspartate aminotransferase increased,grade ≥ 3,1 (2.5) n (%)
same,Treatment-related adverse event: Constipation,grade ≥ 3,0 n (%)
same,Treatment-related adverse event: Decreased appetite,grade ≥ 3,1 (2.5) n (%)
same,Treatment-related adverse event: Diarrhea,grade ≥ 3,2 (5.0) n (%)
same,Treatment-related adverse event: Hyperglycemia (preferred term),grade ≥ 3,3 (7.5) n (%)
same,Treatment-related adverse event: Hypokalemia,grade ≥ 3,2 (5.0) n (%)
same,Treatment-related adverse event: Hyponatremia,grade ≥ 3,5 (12.5) n (%)
same,Treatment-related adverse event: Hypophosphatemia,grade ≥ 3,4 (10.0) n (%)
same,Treatment-related adverse event: Nausea,grade ≥ 3,0 n (%)
same,Treatment-related adverse event: Neutrophil count decreased,grade ≥ 3,8 (20.0) n (%)
same,Treatment-related adverse event: Pruritus,grade ≥ 3,2 (5.0) n (%)
same,Treatment-related adverse event: Rash,grade ≥ 3,5 (12.5) n (%)
same,Treatment-related adverse event: Rash maculopapular,grade ≥ 3,4 (10.0) n (%)
same,Treatment-related adverse event: White blood cell count decreased,grade ≥ 3,5 (12.5) n (%)
same,"Dose interruption due to fatigue, patients",most common TRAE leading to dose interruption,10.0%
same,"Dose reduction due to rash, patients",most common TRAE leading to dose reduction,22.5%
same,"Hyperglycemia leading to treatment discontinuation, patients",one patient,2.5%
same,"Treatment-related hyperglycemia grade 4, patients",one patient,2.5%
same,"Death due to a TRAE, patients","one patient, acute coronary syndrome",2.5%
same,"Treatment discontinuation due to TRAEs, patients","two patients: acute coronary syndrome, hyperglycemia and rash",5.0%
same,"Deaths following malignant neoplasm progression, patients","two patients, not considered treatment-related",5.0%
